Experimental data published in the supplement of paper PMC12855868.

B1: library; numbered along this chain (parent)
chain: MAAAGGARLLRAASAVLGGPAGRWLHHAGSRAGSSGLLRNRGPGGSAEASRSLSVSARARSSSEDKITVHFINRDGETLTTKGKVGDSLLDVVVENNLDIDGFGACEGTLACSTCHLIFEDHIYEKLDAITDEENDMLDLAYGLTDRSRLGCQICLTKSMDNMTVRVPETVADARQSIDVGKTS

Variants of: B1
Assay: scaled log2 fold change in cell abundance, elesclomol vs control (0 = silent mean, 1 = nonsense mean) (scaled log2 ratio); higher = higher viability under elesclomol (loss of FDX1 cuproptosis function)
Settings: glucose 10 mM
[1] = with ABC1 FDX1 KO, elesclomol 5 nM, 14 days
[2] = with HEK293T FDX1 KO, elesclomol 40 nM, 11 days
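Further: variant abundance is its share of total variant reads in each endpoint sample, from next-generation sequencing of the integrated ORF PCR-amplified out of genomic DNA.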

Row | Variant | scaled log2 fold change [1] | scaled log2 fold change [2]
1 | MAAAGGARLLRAASAVLGGPAGRWLHHAGSRAGSSGLLRNRGPGGSAEASRSLSVSARARSSSEDKITVHFINRDGETLTTKGKVGDSLLDVVVENNLDIDGFGACEGTLACWTCHLIFEDHIYEKLDAITDEENDMLDLAYGLTDRSRLGCQICLTKSMDNMTVRVPETVADARQSIDVGKTS | 0.446 | 0.762
2 | MAAAGGARLLRAASAVLGGPAGRWLHHAGSRAGSSGLLRNRGPGGSAEASRSLSVSARARSSSEDKITVHFINRDGETLTTKGKVGDSLLDVVVENNLDIDGFGACEGTLACRTCHLIFEDHIYEKLDAITDEENDMLDLAYGLTDRSRLGCQICLTKSMDNMTVRVPETVADARQSIDVGKTS | 0.116 | 0.165
3 | MAAAGGARLLRAASAVLGGPAGRWLHHAGSRAGSSGLLRNRGPGGSAEASRSLSVSARARSSSEDKITVHFINRDGETLTTKGKVGDSLLDVVVENNLDIDGFGACEGTLACQTCHLIFEDHIYEKLDAITDEENDMLDLAYGLTDRSRLGCQICLTKSMDNMTVRVPETVADARQSIDVGKTS | -0.139 | -0.137
4 | MAAAGGARLLRAASAVLGGPAGRWLHHAGSRAGSSGLLRNRGPGGSAEASRSLSVSARARSSSEDKITVHFINRDGETLTTKGKVGDSLLDVVVENNLDIDGFGACEGTLACDTCHLIFEDHIYEKLDAITDEENDMLDLAYGLTDRSRLGCQICLTKSMDNMTVRVPETVADARQSIDVGKTS | 0.394 | 0.644
5 | MAAAGGARLLRAASAVLGGPAGRWLHHAGSRAGSSGLLRNRGPGGSAEASRSLSVSARARSSSEDKITVHFINRDGETLTTKGKVGDSLLDVVVENNLDIDGFGACEGTLACFTCHLIFEDHIYEKLDAITDEENDMLDLAYGLTDRSRLGCQICLTKSMDNMTVRVPETVADARQSIDVGKTS | 0.0249 | 0.717
6 | MAAAGGARLLRAASAVLGGPAGRWLHHAGSRAGSSGLLRNRGPGGSAEASRSLSVSARARSSSEDKITVHFINRDGETLTTKGKVGDSLLDVVVENNLDIDGFGACEGTLACKTCHLIFEDHIYEKLDAITDEENDMLDLAYGLTDRSRLGCQICLTKSMDNMTVRVPETVADARQSIDVGKTS | 0.372 | 0.195
7 | MAAAGGARLLRAASAVLGGPAGRWLHHAGSRAGSSGLLRNRGPGGSAEASRSLSVSARARSSSEDKITVHFINRDGETLTTKGKVGDSLLDVVVENNLDIDGFGACEGTLACYTCHLIFEDHIYEKLDAITDEENDMLDLAYGLTDRSRLGCQICLTKSMDNMTVRVPETVADARQSIDVGKTS | 0.038 | 0.0184
8 | MAAAGGARLLRAASAVLGGPAGRWLHHAGSRAGSSGLLRNRGPGGSAEASRSLSVSARARSSSEDKITVHFINRDGETLTTKGKVGDSLLDVVVENNLDIDGFGACEGTLACMTCHLIFEDHIYEKLDAITDEENDMLDLAYGLTDRSRLGCQICLTKSMDNMTVRVPETVADARQSIDVGKTS | 0.304 | –
9 | MAAAGGARLLRAASAVLGGPAGRWLHHAGSRAGSSGLLRNRGPGGSAEASRSLSVSARARSSSEDKITVHFINRDGETLTTKGKVGDSLLDVVVENNLDIDGFGACEGTLACGTCHLIFEDHIYEKLDAITDEENDMLDLAYGLTDRSRLGCQICLTKSMDNMTVRVPETVADARQSIDVGKTS | 0.021 | 0.00491
10 | MAAAGGARLLRAASAVLGGPAGRWLHHAGSRAGSSGLLRNRGPGGSAEASRSLSVSARARSSSEDKITVHFINRDGETLTTKGKVGDSLLDVVVENNLDIDGFGACEGTLACLTCHLIFEDHIYEKLDAITDEENDMLDLAYGLTDRSRLGCQICLTKSMDNMTVRVPETVADARQSIDVGKTS | 0.0304 | 0.215
11 | MAAAGGARLLRAASAVLGGPAGRWLHHAGSRAGSSGLLRNRGPGGSAEASRSLSVSARARSSSEDKITVHFINRDGETLTTKGKVGDSLLDVVVENNLDIDGFGACEGTLACVTCHLIFEDHIYEKLDAITDEENDMLDLAYGLTDRSRLGCQICLTKSMDNMTVRVPETVADARQSIDVGKTS | 0.242 | -0.434
12 | MAAAGGARLLRAASAVLGGPAGRWLHHAGSRAGSSGLLRNRGPGGSAEASRSLSVSARARSSSEDKITVHFINRDGETLTTKGKVGDSLLDVVVENNLDIDGFGACEGTLACETCHLIFEDHIYEKLDAITDEENDMLDLAYGLTDRSRLGCQICLTKSMDNMTVRVPETVADARQSIDVGKTS | 0.672 | -0.214
13 | MAAAGGARLLRAASAVLGGPAGRWLHHAGSRAGSSGLLRNRGPGGSAEASRSLSVSARARSSSEDKITVHFINRDGETLTTKGKVGDSLLDVVVENNLDIDGFGACEGTLACITCHLIFEDHIYEKLDAITDEENDMLDLAYGLTDRSRLGCQICLTKSMDNMTVRVPETVADARQSIDVGKTS | 0.189 | -0.397
14 | MAAAGGARLLRAASAVLGGPAGRWLHHAGSRAGSSGLLRNRGPGGSAEASRSLSVSARARSSSEDKITVHFINRDGETLTTKGKVGDSLLDVVVENNLDIDGFGACEGTLACNTCHLIFEDHIYEKLDAITDEENDMLDLAYGLTDRSRLGCQICLTKSMDNMTVRVPETVADARQSIDVGKTS | -0.0206 | 0.213
15 | MAAAGGARLLRAASAVLGGPAGRWLHHAGSRAGSSGLLRNRGPGGSAEASRSLSVSARARSSSEDKITVHFINRDGETLTTKGKVGDSLLDVVVENNLDIDGFGACEGTLACTTCHLIFEDHIYEKLDAITDEENDMLDLAYGLTDRSRLGCQICLTKSMDNMTVRVPETVADARQSIDVGKTS | 0.186 | 0.232
16 | MAAAGGARLLRAASAVLGGPAGRWLHHAGSRAGSSGLLRNRGPGGSAEASRSLSVSARARSSSEDKITVHFINRDGETLTTKGKVGDSLLDVVVENNLDIDGFGACEGTLACHTCHLIFEDHIYEKLDAITDEENDMLDLAYGLTDRSRLGCQICLTKSMDNMTVRVPETVADARQSIDVGKTS | 0.269 | -0.884
17 | MAAAGGARLLRAASAVLGGPAGRWLHHAGSRAGSSGLLRNRGPGGSAEASRSLSVSARARSSSEDKITVHFINRDGETLTTKGKVGDSLLDVVVENNLDIDGFGACEGTLACPTCHLIFEDHIYEKLDAITDEENDMLDLAYGLTDRSRLGCQICLTKSMDNMTVRVPETVADARQSIDVGKTS | 1.03 | 1.16
